Experiment [1] addresses T1, cyno PDL1 (adsorbed in blockade assays) (cynomolgus monkey, UniProt G7PSE7 19-239). Nature of the experiment: ELISA blocking of cyno B7-1 binding to PDL1; cyno B7-1 blockade. On the technique in general: ELISA stands for enzyme-linked immunosorbent assay.
In experiment [2] the target is T2, human PDL1 (R&D Systems) (human, UniProt Q9NZQ7 19-239). Kind of experiment: ELISA blocking of human B7-1 binding to PDL1; hB7-1 blockade.
Experiment [3] deals with T3, human PDL1-Fc (R & D Systems) (human, UniProt Q9NZQ7 19-239). Kind of experiment: ELISA.
T3 sequence (Q9NZQ7 19-239): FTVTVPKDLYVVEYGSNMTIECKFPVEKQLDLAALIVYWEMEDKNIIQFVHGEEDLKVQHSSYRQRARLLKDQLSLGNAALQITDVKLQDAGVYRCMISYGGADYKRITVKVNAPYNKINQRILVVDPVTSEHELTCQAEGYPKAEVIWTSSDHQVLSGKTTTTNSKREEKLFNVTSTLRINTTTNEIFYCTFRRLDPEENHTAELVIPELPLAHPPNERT
Experiment [4] addresses T4, mouse PDL1-Fc (R & D Systems) (mouse, UniProt Q9EP73 19-238). Kind of experiment: ELISA.
Experiment [5] has as its target T5, cynomolgus monkey (cyno) PDL1-Fc (Sino biological) (cynomolgus monkey, UniProt G7PSE7 19-239). Nature of the experiment: ELISA.
The target in experiment [6] is T2, human PDL1 (R&D Systems). Nature of the experiment: ELISA blocking of human PD-1 binding to PDL1; hPD-1 blockade.
Experiment [7] concerns the target T1, cyno PDL1 (adsorbed in blockade assays). Kind of experiment: ELISA blocking of cyno PD-1 binding to PDL1; cyno PD1 blockade.
Experiment [8] has as its target T3, human PDL1-Fc (R & D Systems). Kind of experiment: ELISA. This is another data set of the same source.
Experiment [9] addresses T4, mouse PDL1-Fc (R & D Systems). Kind of experiment: ELISA. The source holds these as a separate data set.
In experiment [10] the target is T5, cynomolgus monkey (cyno) PDL1-Fc (Sino …). Kind of experiment: ELISA. This is another data set of the same source.

Substitutions are numbered along the chain they refer to. Like-named read-outs stand apart in the source and are kept apart here.

T2 sequence (Q9NZQ7 19-239): as above
T5 sequence (G7PSE7 entry or part of it): as the sequence (Q9NZQ7 19-239) above, with A33T, A34S, S62N, R68Q, Q82R, F173L, T185A, T192I, H215L counted along it
T1 sequence (G7PSE7 entry or part of it): as the sequence (Q9NZQ7 19-239) above, with A33T, A34S, S62N, R68Q, Q82R, F173L, T185A, T192I, H215L counted along it
T4 sequence (Q9EP73 19-238): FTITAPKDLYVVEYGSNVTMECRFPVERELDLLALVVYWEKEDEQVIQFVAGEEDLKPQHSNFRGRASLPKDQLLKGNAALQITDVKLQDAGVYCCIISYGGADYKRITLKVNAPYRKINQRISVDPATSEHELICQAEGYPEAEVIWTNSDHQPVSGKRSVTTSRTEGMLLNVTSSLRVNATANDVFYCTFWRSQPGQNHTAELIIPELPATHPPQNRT

B1: anti-PDL1 antibody C5H9v2 (antibody, V domains shown)
VH: EVQLLESGGGLVQPGGSLRLSCAASGFTFSSYAMSWVRQAPGKGLEWVSSIWRNGIVTVYADSVKGRFTISRDNSKNTLYLQMNSLRAEDTAVYYCAKWSAAFDYWGQGTLVTVSS
VL: DIQMTQSPSSLSASVGDRVTITCRASQSISSYLNWYQQKPGKAPKLLIYAASSLQSGVPSRFSGSGSGTDFTLTISSLQPEDFATYYCQQDNGYPSTFGGGTKVEIKR
In the case of B1, the values for the concentration for half-maximal inhibition (IC50) (in experiment [1]; with human PDL1 (R&D Systems) [2]; with human PDL1 (R&D Systems) [6]) were 0.1 nM, 0.5 nM and 0.7 nM, respectively. For the same molecule, the equilibrium dissociation constant (Kd) (as a rule, the equilibrium constant for the complex coming apart) in experiment [3] stood at 0.272 nM; in experiment [4] it was 0.464 nM; in experiment [5], 0.544 nM.

B2: anti-PDL1 antibody C5H9 (antibody, V domains shown)
VH: B1 VH
VL: B1 VL with A50Y, S53T, G100Q
With B2, the Kd in experiment [3] came out at 0.286 nM; in experiment [4], 0.475 nM; in [5], 0.398 nM.

B3: anti-PDL1 activatable antibody PL07-2001-C5H9v2 (antibody)
VH: B1 VH
VL: QGQSGSGIALCPSHFCQLPQTGGGSSGGSGGSGGISSGLLSGRSDNHGGSDIQMTQSPSSLSASVGDRVTITCRASQSISSYLNWYQQKPGKAPKLLIYAASSLQSGVPSRFSGSGSGTDFTLTISSLQPEDFATYYCQQDNGYPSTFGGGTKVEIKR
With B3, the 50% inhibitory concentration (IC50) (in general, the concentration at which inhibition is half-maximal) in [1] was 9.6 nM; with human PDL1 (R&D Systems) [2], 11.7 nM; in experiment [7], 7 nM; with human PDL1 (R&D Systems) [6] it was 39.8 nM.

B4: C5H9 mIgG2a (antibody, V domains shown)
VH: B1 VH
VL: B1 VL with A50Y, S53T, G100Q
As for B4, the equilibrium dissociation constant (Kd) in [8] was determined as 0.515 nM; in [9], 0.666 nM; in experiment [10], 0.399 nM.

The record behind these values is patent US20190382493A1 (published 2019).
